According to the supplement of paper PMC10567573:

B1: NCF4 (parent)
chain: FGPDSKSSALACTLPTLPAKVYVG

Variants of: B1
Assay: protein stability index of a GFP-peptide fusion (GPS, HEK-293T) (PSI 1-6); higher = more stable
Conditions: c terminus: a fixed tail appended
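Also: lentivirally expressed fusions sorted by FACS into six bins by GFP to DsRed ratio, PSI derived from sequencing read proportions per bin multiplied by bin number.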

Q: For K20V, which protein stability index is on record?
A: 1.81

Q: For K20C, which protein stability index is on record?
A: 2.48

Q: With K20W as the variant, how does the protein stability index read?
A: 2.15

Q: With K20Q as the variant, how does the protein stability index read?
A: 2.08

Q: For K20P, which protein stability index is on record?
A: 2.35

Q: Which protein stability index does the source give for D4A here?
A: 1.82

Q: With D4Y as the variant, how does the protein stability index read?
A: 1.8

Q: With D4M as the variant, how does the protein stability index read?
A: 2.19

Q: Which protein stability index does the source give for D4L here?
A: 2.15

Q: Which protein stability index does the source give for D4F here?
A: 1.58

Q: For D4Q, which protein stability index is on record?
A: 2.26

Q: With D4E as the variant, how does the protein stability index read?
A: 2.05

Q: With D4C as the variant, how does the protein stability index read?
A: 2.11

Q: With D4I as the variant, how does the protein stability index read?
A: 2.15

Q: Which protein stability index does the source give for D4K here?
A: 2.48

Q: Which protein stability index does the source give for D4S here?
A: 2.04

Q: Which protein stability index does the source give for D4H here?
A: 1.18

Q: With D4V as the variant, how does the protein stability index read?
A: 1.75

Q: Which protein stability index does the source give for S8V here?
A: 2.22

Q: Which protein stability index does the source give for S8N here?
A: 2.32

Q: With S8K as the variant, how does the protein stability index read?
A: 1.85

Q: For S8R, which protein stability index is on record?
A: 3.19

Q: For S8H, which protein stability index is on record?
A: 1.67

Q: With S8M as the variant, how does the protein stability index read?
A: 2.08

Q: For S8L, which protein stability index is on record?
A: 1.98

Q: With S8D as the variant, how does the protein stability index read?
A: 2.7

Q: With S8E as the variant, how does the protein stability index read?
A: 3.36

Q: Which protein stability index does the source give for S8Y here?
A: 4.4

Q: With S8P as the variant, how does the protein stability index read?
A: 2.22

Q: Which protein stability index does the source give for V23E here?
A: 2.81

Q: Which protein stability index does the source give for V23D here?
A: 3.21

Q: Which protein stability index does the source give for V23A here?
A: 2.29

Q: For V23L, which protein stability index is on record?
A: 2.67

Q: With V23C as the variant, how does the protein stability index read?
A: 2.72

Q: Which protein stability index does the source give for V23Q here?
A: 2.36

Q: For V23I, which protein stability index is on record?
A: 2.29

Q: With V23P as the variant, how does the protein stability index read?
A: 2.77

Q: Which protein stability index does the source give for V23K here?
A: 2.86

Q: Which protein stability index does the source give for V23Y here?
A: 2.39

Q: With A11H as the variant, how does the protein stability index read?
A: 2.23

Q: Which protein stability index does the source give for A11E here?
A: 2.63

Q: For A11Q, which protein stability index is on record?
A: 3

Q: For A11G, which protein stability index is on record?
A: 2.22

Q: For A11P, which protein stability index is on record?
A: 2.17

Q: With A11R as the variant, how does the protein stability index read?
A: 1.58

Q: Which protein stability index does the source give for A11V here?
A: 1.76

Q: For A11T, which protein stability index is on record?
A: 2.51

Q: Which protein stability index does the source give for A11L here?
A: 2.18

Q: For A11Y, which protein stability index is on record?
A: 1.46

Q: For A11D, which protein stability index is on record?
A: 2.99

Q: With A11I as the variant, how does the protein stability index read?
A: 2.24

Q: With S5Y as the variant, how does the protein stability index read?
A: 1.51

Q: Which protein stability index does the source give for S5H here?
A: 2.36

Q: For S5C, which protein stability index is on record?
A: 1.8

Q: With S5A as the variant, how does the protein stability index read?
A: 2.34

Q: With S5V as the variant, how does the protein stability index read?
A: 2.46

Q: With S5N as the variant, how does the protein stability index read?
A: 2.65

Q: Which protein stability index does the source give for S5Q here?
A: 3.47

Q: For S5M, which protein stability index is on record?
A: 1.89

Q: Which protein stability index does the source give for S5T here?
A: 2.32

Q: Which protein stability index does the source give for S5D here?
A: 3.16

Q: With A19P as the variant, how does the protein stability index read?
A: 2.46

Q: For A19L, which protein stability index is on record?
A: 1.41

Q: For A19M, which protein stability index is on record?
A: 1.55

Q: For A19R, which protein stability index is on record?
A: 2.47

Q: With A19E as the variant, how does the protein stability index read?
A: 2.56

Q: For A19Y, which protein stability index is on record?
A: 1.95

Q: Which protein stability index does the source give for A19D here?
A: 2.6

Q: With A19T as the variant, how does the protein stability index read?
A: 2.05

Q: Which protein stability index does the source give for A19W here?
A: 1.26

Q: Which protein stability index does the source give for A19K here?
A: 2.38

Q: With A19F as the variant, how does the protein stability index read?
A: 2.35

Q: For A19S, which protein stability index is on record?
A: 2.14

Q: For A19H, which protein stability index is on record?
A: 2.17

Q: With A19N as the variant, how does the protein stability index read?
A: 2.31

Q: With A19V as the variant, how does the protein stability index read?
A: 2.76

Q: With C12S as the variant, how does the protein stability index read?
A: 2.87

Q: With C12A as the variant, how does the protein stability index read?
A: 2.87

Q: With C12W as the variant, how does the protein stability index read?
A: 1.88

Q: For C12E, which protein stability index is on record?
A: 3.13

Q: Which protein stability index does the source give for C12Q here?
A: 2.36

Q: For C12Y, which protein stability index is on record?
A: 1.88

Q: For C12H, which protein stability index is on record?
A: 3.16

Q: For C12I, which protein stability index is on record?
A: 2.3

Q: With C12F as the variant, how does the protein stability index read?
A: 1.7

Q: For S7N, which protein stability index is on record?
A: 2.23

Q: For S7H, which protein stability index is on record?
A: 1.57

Q: For S7F, which protein stability index is on record?
A: 2.9

Q: Which protein stability index does the source give for S7L here?
A: 2.07

Q: With S7M as the variant, how does the protein stability index read?
A: 2.25

Q: With S7K as the variant, how does the protein stability index read?
A: 2.35

Q: Which protein stability index does the source give for S7T here?
A: 2.37

Q: With S7V as the variant, how does the protein stability index read?
A: 1.73

Q: With S7Y as the variant, how does the protein stability index read?
A: 1.06

Q: For S7C, which protein stability index is on record?
A: 1.69

Q: For S7G, which protein stability index is on record?
A: 2.37

Q: For S7D, which protein stability index is on record?
A: 2.9

Q: With S7R as the variant, how does the protein stability index read?
A: 2.35

Q: With S7P as the variant, how does the protein stability index read?
A: 1.97

Q: Which protein stability index does the source give for S7E here?
A: 2.72

Q: Which protein stability index does the source give for S7W here?
A: 1.97

Q: With S7I as the variant, how does the protein stability index read?
A: 1.56

Q: For T13A, which protein stability index is on record?
A: 2.28

Q: For T13V, which protein stability index is on record?
A: 1.79

Q: For T13R, which protein stability index is on record?
A: 2.33

Q: Which protein stability index does the source give for T13Q here?
A: 2.19

Q: Which protein stability index does the source give for T13D here?
A: 2.81

Q: Which protein stability index does the source give for T13L here?
A: 1.83

Q: For T13P, which protein stability index is on record?
A: 1.88

Q: For T13K, which protein stability index is on record?
A: 2.46

Q: With T13N as the variant, how does the protein stability index read?
A: 2.9

Q: With T13I as the variant, how does the protein stability index read?
A: 2.18

Q: Which protein stability index does the source give for T13M here?
A: 2.15

Q: For L17I, which protein stability index is on record?
A: 1.88

Q: For L17E, which protein stability index is on record?
A: 2.64

Q: For L17Y, which protein stability index is on record?
A: 1.54

Q: With L17T as the variant, how does the protein stability index read?
A: 2.43

Q: Which protein stability index does the source give for L17D here?
A: 2.76

Q: For L17K, which protein stability index is on record?
A: 2.54

Q: Which protein stability index does the source give for L17W here?
A: 1.88

Q: For L17R, which protein stability index is on record?
A: 2.2

Q: With L17H as the variant, how does the protein stability index read?
A: 2.09

Q: Which protein stability index does the source give for L17Q here?
A: 3.03

Q: For L10F, which protein stability index is on record?
A: 2.15

Q: For L10M, which protein stability index is on record?
A: 2.69

Q: With L10E as the variant, how does the protein stability index read?
A: 3.65

Q: With L10D as the variant, how does the protein stability index read?
A: 3.99

Q: For L10P, which protein stability index is on record?
A: 3.58

Q: For L10V, which protein stability index is on record?
A: 2.88

Q: Which protein stability index does the source give for L10C here?
A: 2.69

Q: Which protein stability index does the source give for L10N here?
A: 3.73

Q: With L10G as the variant, how does the protein stability index read?
A: 2.93

Q: Which protein stability index does the source give for L10H here?
A: 2.88

Q: Which protein stability index does the source give for L10A here?
A: 2.99

Q: With L10T as the variant, how does the protein stability index read?
A: 3.57

Q: For L10I, which protein stability index is on record?
A: 2.12

Q: With L10Y as the variant, how does the protein stability index read?
A: 1.86

Q: Which protein stability index does the source give for G2W here?
A: 1.65

Q: Which protein stability index does the source give for G2N here?
A: 1.77

Q: With G2V as the variant, how does the protein stability index read?
A: 3.38

Q: With G2M as the variant, how does the protein stability index read?
A: 1.84

Q: For G2A, which protein stability index is on record?
A: 2.57

Q: For G2I, which protein stability index is on record?
A: 1.96

Q: For G2P, which protein stability index is on record?
A: 2.59

Q: Which protein stability index does the source give for G2Y here?
A: 2.22

Q: With G2L as the variant, how does the protein stability index read?
A: 2.06

Q: Which protein stability index does the source give for G2S here?
A: 2.34

Q: With G2R as the variant, how does the protein stability index read?
A: 2.6

Q: With Y22E as the variant, how does the protein stability index read?
A: 2.85

Q: Which protein stability index does the source give for Y22V here?
A: 2.37

Q: For Y22S, which protein stability index is on record?
A: 3.4

Q: For Y22T, which protein stability index is on record?
A: 2.93

Q: For Y22F, which protein stability index is on record?
A: 2.67

Q: For Y22Q, which protein stability index is on record?
A: 3.12

Q: With Y22L as the variant, how does the protein stability index read?
A: 2.12

Q: For Y22I, which protein stability index is on record?
A: 2.36

Q: Which protein stability index does the source give for Y22M here?
A: 2.7

Q: With Y22C as the variant, how does the protein stability index read?
A: 2.63

Q: With Y22W as the variant, how does the protein stability index read?
A: 1.67

Q: With Y22H as the variant, how does the protein stability index read?
A: 2.87

Q: For Y22N, which protein stability index is on record?
A: 2.94

Q: With G24C as the variant, how does the protein stability index read?
A: 1.65

Q: Which protein stability index does the source give for G24D here?
A: 3.36

Q: With G24W as the variant, how does the protein stability index read?
A: 2.29

Q: Which protein stability index does the source give for G24P here?
A: 1.68

Q: Which protein stability index does the source give for G24R here?
A: 2.29

Q: For G24A, which protein stability index is on record?
A: 1.83
